Target: T1, mouse PD-1 (mouse, UniProt Q02242 25-288)
T1 construct: also called 300-mouse PD-1 transfectants; 300-PD-1 transfectants
T1 sequence: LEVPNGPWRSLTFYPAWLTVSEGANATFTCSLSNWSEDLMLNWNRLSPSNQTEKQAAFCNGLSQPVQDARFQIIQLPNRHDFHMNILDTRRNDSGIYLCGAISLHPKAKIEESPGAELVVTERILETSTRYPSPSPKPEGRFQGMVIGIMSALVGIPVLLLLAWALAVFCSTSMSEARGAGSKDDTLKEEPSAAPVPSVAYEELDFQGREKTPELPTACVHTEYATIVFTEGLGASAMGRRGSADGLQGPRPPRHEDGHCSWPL
Assay: hybridoma screened by flow cytometry on PD-1 transfectants; described in words only
From the text: The mice were immunized first with human PD-1-mIgG2a fusion protein (made in Freeman lab) in complete Freund's adjuvant and thereafter with alternating doses of human PD-1-mIgG2a fusion protein and mouse PD-1-Ig fusion protein in incomplete Freund's adjuvant. Mice were given a final boost with antigen and fused with SP2/0 myeloma cells. The PD-1 specific hybridomas were first identified when this fusion was screened by flow cytometry on 300-human PD-1 and 300-mouse PD-1 transfectants. Hybridomas were subcloned to stability. The mAbs were characterized for their capacity to bind to human and/or mouse PD-1 and for their affinity.

B1: 8H3 mouse anti-mouse PD-1 mAb (antibody, mouse IgG1, V domains shown)
VH: QVQLQQSGAELARPGASVKMSCKASGYTFTSYTMHWVKQRPGQGLEWIGYIHPSTGYIYYNQKFKDKATLTADKSSSTAYMQLSSLTSEDSAVYYCARKGTYLFDYWGQGTTLTVSS
VL: DIVMTQSQKFMSTSVGDRVSVTCKASQNVGTNVAWYQQKPGQSPKALIYSASYRYSGVPDRFTGSGSGTDFTLTISNMQSEDLAEYFCQQYNNYPLTFGAGTMLELK
notes: the light chain is kappa; also called 332.8H3; αPD-1 mAb (8H3)
  binding result: binds

Source: patent publication US20220041726A1 (Dana-Farber, published 2022)
